Data as given in patent US20090186337A1 (INSTITUT NATIONAL DE LA RECHERCHE AGRONOMIQUE INRA, published 2009).

Columns and labels:
[1] = target: T1, N protein (nucleocapsid protein) of human RSV Long strain (human RSV Long strain, UniProt P03418 1-391); assay: coexpression in E. coli, copurification of N with the P fragment
T1 construct: also called native N protein

[2] = target: N protein deleted of 27 residues at the C-terminal end (human RSV Long strain, UniProt P03418 1-364); assay: interaction of truncated N with P (method not detailed)
[3] = target: T2, N protein of the measles virus (measles virus strain Edmonston B, UniProt P0DXN6 1-525); assay: coexpression in E. coli and copurification of N with the P fragment
T2 sequence: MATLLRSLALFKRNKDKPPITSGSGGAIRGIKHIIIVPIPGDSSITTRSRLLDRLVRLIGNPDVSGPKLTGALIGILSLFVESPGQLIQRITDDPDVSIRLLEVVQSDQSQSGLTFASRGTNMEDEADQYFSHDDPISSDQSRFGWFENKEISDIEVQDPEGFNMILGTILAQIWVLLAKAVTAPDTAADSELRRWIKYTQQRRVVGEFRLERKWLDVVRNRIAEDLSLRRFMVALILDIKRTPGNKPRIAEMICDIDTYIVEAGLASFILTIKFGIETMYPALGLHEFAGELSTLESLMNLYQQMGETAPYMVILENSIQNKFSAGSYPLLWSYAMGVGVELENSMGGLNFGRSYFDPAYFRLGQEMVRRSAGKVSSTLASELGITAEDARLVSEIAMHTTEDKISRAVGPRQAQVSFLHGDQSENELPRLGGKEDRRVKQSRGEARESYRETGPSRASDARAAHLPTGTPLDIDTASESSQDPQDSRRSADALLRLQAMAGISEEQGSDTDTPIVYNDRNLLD

B1: protein P (fragment 161-241) fused to GST (other)
chain: SARDGIRDAMVGLREEMIEKIRTEALMTNDRLEAMARLRNEESEKMAKDTSDEVSLNPTSEKLNNLLEGNDSDNDLSLEDF
notes: not shown: GST carrier at the N end (from pGEX-4T-3) and the vector-encoded junction with the thrombin site
Does B1 bind [1]?
Result: binds

B2: P protein (phosphoprotein) of human RSV Long strain (other)
chain: SARDGIRDAMVGLREEMIEKIRTEALMTNDRLEAMARLRNEESEKMAKDTSDEVSLNPTSEKLNNLLEGNDSDNDLSLEDF
Does B2 bind [2]?
Result: no binding

B3: P protein of the measles virus deleted of its N-terminal part as far as residue 456 (inclusive) (other)
chain: GPASRSVIRSIIKSSRLEEDRKRYLMTLLDDIKGANDLAKFHQMLMKIIMK
notes: also called PΔ457N
Does B3 bind [3]?
Result: no binding
